Entries after “also recorded” stand apart in the source; their conditions may differ.
Experiments:
[1] = system: CggR wild type (Bacillus subtilis); assay: EMSA; settings: 20 mM FBP; 35 nM DNA, 2 or 4 uM CggR, 10 mM Na3PO4 pH 7.8, 100 mM NaCl, 1 mM EDTA, 1 mM DTT, 5% glycerol, 1 ug salmon sperm DNA, 20 min room temperature; 5% native PAGE …
[2] = system: CggR R250A (Bacillus subtilis); assay: EMSA; settings: 20 mM FBP; 35 nM DNA, 2 or 4 uM CggR, 10 mM Na3PO4 pH 7.8, 100 mM NaCl, 1 mM EDTA, 1 mM DTT, 5% glycerol, 1 ug salmon sperm DNA, 20 min room temperature; 5% native PAGE …
[3] = system: DNA fragments containing the CggR operator sites; assay: Electrophoresis mobility shift assay: CggR binding to DNA; settings: for DNA binding affinity: desired/undesired sign / DNA binding affinity: Fig 5D; for DNA binding affinity: compared with wild type; for CggR binding to DNA in the absence of FBP: 0 mM FBP, Fig 5C; on DNA binding affinity: desired/undesired sign: key: +: A plus sign indicates desired characteristics achieved in the mutants; -: a minus sign indicates undesired effects of the mutations
Method: Fluorescently labeled DNA fragments were generated by hybridization of single‐stranded forward (labeled with Alexa Fluor 647 at the 5′ end) and reverse (unlabeled) oligonucleotides containing the CggR operator sites. The hybridization protocol and respective hybridization efficiency control were performed as described elsewhere (Bley Folly et al, 2018).
Hybridized labeled DNA fragments (final concentration 35 nM) were incubated 20 min at room temperature with 2 or 4 μM of the purified wild type or mutant CggR variants, in the presence of different concentrations of FBP (0; 0.5; 1; 2.5; 5; 10; and 20 mM) in a final volume of 25 μl in binding buffer (10 mM Na3PO4 pH 7.8, 100 mM NaCl, 1 mM EDTA, 1 mM DTT, 5% glycerol) including 1 μg of salmon sperm DNA. The sample mixtures were loaded in a 5% native polyacrylamide gel and run in native conditions in the dark with constant voltage (200V) at 4°C for 2 h.
Fluorescence was imaged using the Typhoon 9400 (Amersham Biosciences, UK) with the excitation set to 650 nm and the emission set to 655 nm. The background‐subtracted total intensities of the protein–DNA complex and the free‐DNA bands were assessed using ImageJ (Abràmoff et al, 2004), and bound DNA/total DNA was calculated by dividing the intensity of the protein–DNA complex band by the total DNA (i.e., the sum of the signal from the protein–DNA complex band plus the one from free DNA).

[4] = Thermal shift assay: protein stability (melting temperature) of CggR variants; settings: for Protein stability: desired/undesired sign / Protein stability: Fig 5D; for Protein stability: compared with wild type
Method: A sample mixture of 25 μl final volume containing 5 μl of 5× SYPRO Orange (Molecular Probes; Eugene, OR), 0.2 mg of the purified CggR, and different concentrations of the FBP metabolite (0; 0.01; 0.1; 0.5; 0.75; 1; 2.5; 10; 20; and 36 mM) was prepared on ice. Control experiments were performed to test the effect of the counter ion NaCl present in FBP salt solutions. Here, the NaCl was added instead of FBP to a final concentration threefold higher than the FBP itself (0; 0.03; 0.3; 1.5; 2.25; 3; 7.5; 30; 60; and 108 mM).
Sample mixtures were transferred into 96‐well PCR plates (Bio‐Rad, CA, USA), sealed with Optical‐Quality Sealing Tape (Bio‐Rad, CA, USA), and analyzed in a CFX96 Real‐Time System combined with C1000 Touch Thermal Cycler (Bio‐Rad, CA, USA). Analysis consisted of a single heating cycle from 20 to 99°C with increments of 0.5°C steps, followed by fluorescence intensity monitoring with a charge‐coupled device camera. The wavelengths for excitation and emission were 490 and 575 nm, respectively. The melting temperature (T m) was automatically calculated by the control software and corresponded to the local maximum of the first derivative of measured fluorescence versus temperature.

[5] = Thermal shift assay: CggR-FBP affinity constants (KD) from melting curves; format: binding; settings: for KD ratio change (KD of the CggR mutant variant / KD of the wild type) / KD ratio change: desired/undesired sign: Fig 5D; for Obtained effects on affinity for FBP: classification based on thermal shift assays; on KD ratio change: desired/undesired sign: key: +: A plus sign indicates desired characteristics achieved in the mutants; -: a minus sign indicates undesired effects of the mutations
Method: The K D of the wild type and mutant CggR variants was calculated by fitting the T m data into a simple cooperative model using the GraphPad software.

[6] = KD for FBP relative to wild type CggR (1 mM)

| Molecule | Obtained effects on DNA binding affinity [3] | DNA binding affinity: desired/undesired sign [3] | DNA binding affinity [3] | KD ratio change (KD of the CggR mutant variant / KD of the wild type) [5] | KD ratio change: desired/undesired sign [5] | fold lower KD than wild type [5, 6] [fold] | Obtained effects on affinity for FBP [5] | CggR binding to DNA in the absence of FBP [3] | CggR remained bound to DNA at high FBP levels ([3]; 20 mM FBP relative to bound fraction at 0 mM FBP) | fold increase of KD over wild type [5, 6] [fold] | binding signal (% of CggR remaining bound vs 0 mM FBP) [1] | binding signal (% of CggR remaining bound vs 0 mM FBP) [2] | Obtained effects on stability [4] | Protein stability: desired/undesired sign [4] | Protein stability [4] |
| --- | --- | --- | --- | --- | --- | --- | --- | --- | --- | --- | --- | --- | --- | --- | --- |
| CggR operator duplex (CggRO) |  |  |  |  |  |  |  |  |  |  | 30 | 30 |  |  |  |
| T151S: CggR mutant, position 151 Thr to Ser, at the CggR-FBP-binding site (protein, UniProt O32253 1-340, looked up, variant T151S) Central glycolytic genes …: MNQLIQAQKKLLPDLLLVMQKRFEILQYIRLTEPIGRRSLSASLGISERVLRGEVQFLKEQNLVDIKTNGMTLTEEGYELLSVLEDTMKDVLGLTLLEKTLKERLNLKDAIIVSGDSDQSPWVKKEMGRAAVACMKKRFSGKNIVAVTGGSTIEAVAEMMTPDSKNRELLFVPARGGLGEDVKNQANTICAHMAEKASGTYRLLFVPGQLSQGAYSSIIEEPSVKEVLNTIKSASMLVHGIGEAKTMAQRRNTPLEDLKKIDDNDAVTEAFGYYFNADGEVVHKVHSVGMQLDDIDAIPDIIAVAGGSSKAEAIEAYFKKPRNTVLVTDEGAAKKLLRDE | No effect | + | Same range | 0.90 | - | 1.1 | mild affinity increase |  |  |  |  |  | No effect | + | Same range |
| R175K: CggR mutant, position 175 Arg to Lys, at the CggR-FBP-binding site (protein, UniProt O32253 1-340, looked up, variant R175K) Central glycolytic genes …: MNQLIQAQKKLLPDLLLVMQKRFEILQYIRLTEPIGRRSLSASLGISERVLRGEVQFLKEQNLVDIKTNGMTLTEEGYELLSVLEDTMKDVLGLTLLEKTLKERLNLKDAIIVSGDSDQSPWVKKEMGRAAVACMKKRFSGKNIVAVTGGTTIEAVAEMMTPDSKNRELLFVPAKGGLGEDVKNQANTICAHMAEKASGTYRLLFVPGQLSQGAYSSIIEEPSVKEVLNTIKSASMLVHGIGEAKTMAQRRNTPLEDLKKIDDNDAVTEAFGYYFNADGEVVHKVHSVGMQLDDIDAIPDIIAVAGGSSKAEAIEAYFKKPRNTVLVTDEGAAKKLLRDE | Disrupted affinity | - | No binding | 0.98 | - |  | negligible affinity increase | did not bind to the DNA anymore |  |  |  |  | No effect | + | Same range |
| R250A: CggR mutant, position 250 Arg to Ala; selected for the glycolytic flux biosensor (protein, UniProt O32253 1-340, looked up, variant R250A) Central glycolytic genes …: MNQLIQAQKKLLPDLLLVMQKRFEILQYIRLTEPIGRRSLSASLGISERVLRGEVQFLKEQNLVDIKTNGMTLTEEGYELLSVLEDTMKDVLGLTLLEKTLKERLNLKDAIIVSGDSDQSPWVKKEMGRAAVACMKKRFSGKNIVAVTGGTTIEAVAEMMTPDSKNRELLFVPARGGLGEDVKNQANTICAHMAEKASGTYRLLFVPGQLSQGAYSSIIEEPSVKEVLNTIKSASMLVHGIGEAKTMAQARNTPLEDLKKIDDNDAVTEAFGYYFNADGEVVHKVHSVGMQLDDIDAIPDIIAVAGGSSKAEAIEAYFKKPRNTVLVTDEGAAKKLLRDE | No effect | + | Same range | 1.52 | + |  | desired decrease in FBP affinity; also recorded: strong affinity decrease | similar | around 30% |  |  |  | No effect |  | Same range |
| T152S: CggR mutant, position 152 Thr to Ser, at the CggR-FBP-binding site (protein, UniProt O32253 1-340, looked up, variant T152S) Central glycolytic genes …: MNQLIQAQKKLLPDLLLVMQKRFEILQYIRLTEPIGRRSLSASLGISERVLRGEVQFLKEQNLVDIKTNGMTLTEEGYELLSVLEDTMKDVLGLTLLEKTLKERLNLKDAIIVSGDSDQSPWVKKEMGRAAVACMKKRFSGKNIVAVTGGTSIEAVAEMMTPDSKNRELLFVPARGGLGEDVKNQANTICAHMAEKASGTYRLLFVPGQLSQGAYSSIIEEPSVKEVLNTIKSASMLVHGIGEAKTMAQRRNTPLEDLKKIDDNDAVTEAFGYYFNADGEVVHKVHSVGMQLDDIDAIPDIIAVAGGSSKAEAIEAYFKKPRNTVLVTDEGAAKKLLRDE | No effect | + | Same range | 0.62 | - | 1.6 |  |  |  |  |  |  | No effect | + | Same range |

Now from value to molecule, other results behind:

| Obtained effects on DNA binding affinity [3] | DNA binding affinity: desired/undesired sign [3] | DNA binding affinity [3] | KD ratio change (KD of the CggR mutant variant / KD of the wild type) [5] | KD ratio change: desired/undesired sign [5] | fold lower KD than wild type [5, 6] [fold] | Obtained effects on affinity for FBP [5] | CggR binding to DNA in the absence of FBP [3] | CggR remained bound to DNA at high FBP levels ([3]; 20 mM FBP relative to bound fraction at 0 mM FBP) | fold increase of KD over wild type [5, 6] [fold] | Molecule | binding signal (% of CggR remaining bound vs 0 mM FBP) [1] | binding signal (% of CggR remaining bound vs 0 mM FBP) [2] | Obtained effects on stability [4] | Protein stability: desired/undesired sign [4] | Protein stability [4] |
| --- | --- | --- | --- | --- | --- | --- | --- | --- | --- | --- | --- | --- | --- | --- | --- |
| Disrupted affinity | - | No binding | 0.79 | - |  | mild affinity increase | did not bind to the DNA anymore |  |  | E269Q: CggR mutant, position 269 Glu to Gln, at the CggR-FBP-binding site (protein, UniProt O32253 1-340, looked up, variant E269Q) Central glycolytic genes …: MNQLIQAQKKLLPDLLLVMQKRFEILQYIRLTEPIGRRSLSASLGISERVLRGEVQFLKEQNLVDIKTNGMTLTEEGYELLSVLEDTMKDVLGLTLLEKTLKERLNLKDAIIVSGDSDQSPWVKKEMGRAAVACMKKRFSGKNIVAVTGGTTIEAVAEMMTPDSKNRELLFVPARGGLGEDVKNQANTICAHMAEKASGTYRLLFVPGQLSQGAYSSIIEEPSVKEVLNTIKSASMLVHGIGEAKTMAQRRNTPLEDLKKIDDNDAVTQAFGYYFNADGEVVHKVHSVGMQLDDIDAIPDIIAVAGGSSKAEAIEAYFKKPRNTVLVTDEGAAKKLLRDE |  |  | Strong decrease |  | Very low |
| Reduced affinity | - | Reduced | 2.59 | + |  | strong affinity decrease | only bound with lower affinity |  | 2.6 | T151V: CggR mutant, position 151 Thr to Val, at the CggR-FBP-binding site (protein, UniProt O32253 1-340, looked up, variant T151V) Central glycolytic genes …: MNQLIQAQKKLLPDLLLVMQKRFEILQYIRLTEPIGRRSLSASLGISERVLRGEVQFLKEQNLVDIKTNGMTLTEEGYELLSVLEDTMKDVLGLTLLEKTLKERLNLKDAIIVSGDSDQSPWVKKEMGRAAVACMKKRFSGKNIVAVTGGVTIEAVAEMMTPDSKNRELLFVPARGGLGEDVKNQANTICAHMAEKASGTYRLLFVPGQLSQGAYSSIIEEPSVKEVLNTIKSASMLVHGIGEAKTMAQRRNTPLEDLKKIDDNDAVTEAFGYYFNADGEVVHKVHSVGMQLDDIDAIPDIIAVAGGSSKAEAIEAYFKKPRNTVLVTDEGAAKKLLRDE |  |  | Strong decrease |  | Very low |
